Assay [1] deals with T1, rat C7 protein (rat).
T1 chain: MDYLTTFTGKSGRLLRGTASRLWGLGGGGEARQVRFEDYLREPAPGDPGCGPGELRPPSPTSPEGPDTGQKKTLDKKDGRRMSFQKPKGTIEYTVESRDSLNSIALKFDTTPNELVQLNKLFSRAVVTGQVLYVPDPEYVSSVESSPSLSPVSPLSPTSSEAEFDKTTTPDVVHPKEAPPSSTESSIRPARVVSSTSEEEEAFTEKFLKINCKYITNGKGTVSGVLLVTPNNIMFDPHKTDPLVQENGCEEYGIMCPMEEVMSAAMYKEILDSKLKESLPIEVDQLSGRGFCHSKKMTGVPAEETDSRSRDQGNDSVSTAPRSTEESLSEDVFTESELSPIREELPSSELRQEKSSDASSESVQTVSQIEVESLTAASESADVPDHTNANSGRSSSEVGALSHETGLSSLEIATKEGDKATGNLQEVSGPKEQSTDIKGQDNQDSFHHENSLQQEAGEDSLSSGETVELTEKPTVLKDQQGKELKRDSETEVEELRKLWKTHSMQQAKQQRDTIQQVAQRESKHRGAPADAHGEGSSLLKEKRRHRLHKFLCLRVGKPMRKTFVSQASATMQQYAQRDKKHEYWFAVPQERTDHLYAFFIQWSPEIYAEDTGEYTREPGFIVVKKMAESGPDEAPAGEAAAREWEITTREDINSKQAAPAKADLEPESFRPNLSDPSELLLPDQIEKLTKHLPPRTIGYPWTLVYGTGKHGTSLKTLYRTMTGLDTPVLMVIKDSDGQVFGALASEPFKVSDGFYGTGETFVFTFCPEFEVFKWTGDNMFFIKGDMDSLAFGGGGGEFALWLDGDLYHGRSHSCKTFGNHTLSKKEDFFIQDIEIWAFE
In words: cell-based or functional assay.

The target in assay [2] is T2, human complement protein C7 (human, UniProt P10643 23-843). Kind of assay: cell-based or functional assay.
The next assay concerns the target mouse C7 protein (mouse, UniProt D3YXF5 23-845). Kind of assay: cell-based or functional assay.
The target in assay [3] is T1, rat C7 protein. In words: direct ELISA, rat C7 on the well, antibody titrated.
The target of assay [4] is T2, human complement protein C7. In words: sandwich ELISA, 2H2 coated as capture, human C7 titrated, goat anti-C7 as detection. (An ELISA detects its analyte on a solid surface through an enzyme-linked reagent.)
The target is the same in assay [5]. In words: sandwich ELISA, 2H2 coated as capture, human C7 titrated, polyclonal anti-C7 as detection.
Assay [6] shares this target. In words: direct ELISA, C7 immobilised on the well, antibody titrated. The protocol: Wells were blocked with bovine serum albumin (BSA), washed, then incubated (1 hour at 37° C.) with test samples containing mAb (supernatants from hybridoma clones for example). Wells were washed then incubated as above with peroxidase-labelled anti-mouse immunoglobulin (Jackson Labs). Wells were washed and signals were developed with OPD (o-phenylenediamine dihydrochloride; Sigma). Colour development was stopped by adding 10% H₂SO₄ to all wells, usually within 5 minutes. The absorbance of each well was measured at 492 nm.

The target is the same in assay [7]. In words: SPR (Biacore); antibody captured on mouse IgG capture kit (CM5 chip), C7 flowed over. The protocol:
(§1) Dissociation was then measured for a further 600 seconds. The surface was regenerated between each cycle.

The target in assay [8] is T1, rat C7 protein. The description is as above. Here is the method:
as §1

mouse C7 protein, sequence (D3YXF5 23-845 limits assumed): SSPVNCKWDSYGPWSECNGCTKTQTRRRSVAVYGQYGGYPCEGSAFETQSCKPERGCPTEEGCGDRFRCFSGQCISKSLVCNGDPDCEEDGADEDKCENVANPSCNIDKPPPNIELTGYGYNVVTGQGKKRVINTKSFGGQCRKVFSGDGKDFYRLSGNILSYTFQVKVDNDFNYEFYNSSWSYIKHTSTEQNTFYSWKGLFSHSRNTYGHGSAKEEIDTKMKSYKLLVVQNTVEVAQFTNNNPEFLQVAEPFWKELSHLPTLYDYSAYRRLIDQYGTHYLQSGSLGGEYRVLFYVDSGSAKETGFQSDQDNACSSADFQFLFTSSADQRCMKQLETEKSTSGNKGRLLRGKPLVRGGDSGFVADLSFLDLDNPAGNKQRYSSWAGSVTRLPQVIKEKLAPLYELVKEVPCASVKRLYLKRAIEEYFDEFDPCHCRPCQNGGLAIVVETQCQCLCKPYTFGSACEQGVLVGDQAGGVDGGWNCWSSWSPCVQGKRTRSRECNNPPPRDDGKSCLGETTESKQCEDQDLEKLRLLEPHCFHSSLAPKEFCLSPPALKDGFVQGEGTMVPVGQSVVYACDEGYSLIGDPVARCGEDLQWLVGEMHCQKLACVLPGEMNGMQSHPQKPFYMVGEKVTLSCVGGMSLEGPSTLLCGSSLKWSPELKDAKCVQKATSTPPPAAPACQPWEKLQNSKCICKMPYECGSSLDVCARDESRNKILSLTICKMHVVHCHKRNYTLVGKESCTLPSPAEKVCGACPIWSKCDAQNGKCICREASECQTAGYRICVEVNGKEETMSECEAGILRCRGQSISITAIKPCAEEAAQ
T2 sequence (P10643 other isoform, or with tags, fused parts or gaps limits assumed): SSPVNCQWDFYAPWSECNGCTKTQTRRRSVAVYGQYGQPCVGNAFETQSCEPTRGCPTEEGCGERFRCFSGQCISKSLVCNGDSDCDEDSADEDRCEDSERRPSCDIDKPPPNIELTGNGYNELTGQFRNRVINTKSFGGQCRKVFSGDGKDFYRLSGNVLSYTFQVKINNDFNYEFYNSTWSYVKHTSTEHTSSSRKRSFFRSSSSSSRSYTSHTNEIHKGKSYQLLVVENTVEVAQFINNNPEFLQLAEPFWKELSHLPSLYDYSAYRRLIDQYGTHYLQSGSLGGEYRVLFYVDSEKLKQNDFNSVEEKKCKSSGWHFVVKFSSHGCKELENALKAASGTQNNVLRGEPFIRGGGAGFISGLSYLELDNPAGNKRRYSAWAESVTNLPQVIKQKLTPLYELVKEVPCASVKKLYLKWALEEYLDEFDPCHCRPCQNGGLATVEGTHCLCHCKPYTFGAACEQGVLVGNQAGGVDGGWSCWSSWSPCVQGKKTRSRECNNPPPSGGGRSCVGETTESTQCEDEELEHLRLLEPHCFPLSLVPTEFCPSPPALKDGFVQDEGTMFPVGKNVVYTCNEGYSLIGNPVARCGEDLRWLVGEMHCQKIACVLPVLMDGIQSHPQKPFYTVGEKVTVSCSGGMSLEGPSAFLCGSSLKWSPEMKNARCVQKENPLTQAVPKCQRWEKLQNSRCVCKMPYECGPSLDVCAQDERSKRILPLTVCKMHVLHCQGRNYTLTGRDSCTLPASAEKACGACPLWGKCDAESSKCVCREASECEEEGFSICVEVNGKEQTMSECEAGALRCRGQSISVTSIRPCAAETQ

B1: monoclonal anti-C7 antibody 2H2 (antibody, IgG2b, V domains shown)
VH: QVQLQQPGAELMKPGASVKLSCKASGYIFTSYWMHWVKQRPGRGLEWIGRIDPNSGGTNYNEKFKSKATLTVDKPSSTVYMKISSLTSEDSAVYYCAREHDYDYAMDYWGQGTSVTVSS
VL: DIVMTQAAPSVPVTPGESVSISCRSSKSLLHSNGNTYLYWFLQRPGQSPQLLIYRMSNLASGVPDRFSGSGSGTAFTLRISRVEAEDVGVYYCMQHLEYPFTFGSGTKLEIK
notes: Biotinylated in the pull-down assays; also called mAb 2H2; clone 2H2
Take B1: the “50% Inhibitory Dose, classical pathway haemolysis assay” value (“50% Inhibitory Dose” below) turned out to be 33.9 ng/mL with rat C7 protein [1], 9980 ng/mL in assay [2] and 3720 ng/mL in the assay with mouse C7 protein. The “Haemolytic Units (HU), classical pathway haemolysis assay” value (shortened to “Haemolytic Units (HU)”) in the assay with rat C7 protein [1] worked out at 265 HU; in assay [2], 1 HU; with mouse C7 protein, 2.7 HU. The EC50 (read off the curve) (commonly the midpoint of the concentration-response curve) with rat C7 protein [3] is roughly 3 µg/mL; in assay [4] it was roughly 0.6 µg/mL; in assay [5], roughly 0.6 µg/mL.

B2: monoclonal anti-C7 antibody 17E7 (antibody, IgG2a, V domains shown)
VH: EVQLQQSGTVLARPGASVKMSCKTSGYSFTTYWMHWVKQRPGQGLEWIGAIYPGNSDTYYSQKFKDKAKLTAVTSASTAYMELSSLTNEDSAVYYCTRSGGYDVGGLDYWGQGTTLTVSS
VL: DIVMTQSPATLSVTPGDGVSLSCRASQSISDYLHWYQQKSHESPRLLIKFASQSISGIPSRFSGSGSGSDFTLSINSVEPEDVGMYYCQNGHSFPFTFGSGTKLELK
notes: also called mAb 17E7; antibody from hybridoma ECACC 19041601
As to B2, in assay [2], the “50% Inhibitory Dose” value amounted to 182 ng/mL and the “Haemolytic Units (HU)” value was found to be 55.1 HU. Further, in [6], the “EC50 (read off the curve)” value is roughly 0.01 µg/mL. Further, in assay [7], the Kd – broadly, the constant that tells how readily two partners part at equilibrium – amounted to 1.02 nM; the koff (in general, the rate constant with which the complex falls apart) was determined as 6.94e-05 s⁻¹; the kon (in general, a measure of how fast the partners come together) turned out to be 68300 M⁻¹ s⁻¹.

B3: monoclonal anti-C7 antibody 73D1 (antibody, IgG2a, V domains shown)
VH: EVQLQQSGPELVKPGASVKMSCKASGYTFTDYNMHWVKQSHGKSLEWIGYINPNNGGPSYNQNFKGKATLTVNKSSSTAYMELRSLTSEDSAVYYCACGNYPDYWGQGTTLTVSS
VL: DIQMTQSPASLSASVGETVTITCRASGNIHNYLAWYQQKQGKSPQLLVYNAKTLADGVPSRFSGSGSGTQYSLKINSLQPEDFGSYYCQHFWSTPLTFGAGTKLELK
notes: also called mAb 73D1; antibody from hybridoma ECACC 19080601
For the molecule B3, the “50% Inhibitory Dose” value in the assay with rat C7 protein [1] came to 506 ng/mL; in assay [2] it was 582 ng/mL; in the assay with mouse C7 protein it was 720 ng/mL. The figures for the “Haemolytic Units (HU)” value (with rat C7 protein [1]; in assay [2]; with mouse C7 protein) were 19.8 HU, 17.2 HU and 13.9 HU, respectively. Moreover, the Kd was found to be 81.7 nM with rat C7 protein [8] and 55.5 nM in [7]. For the same molecule, the koff is 0.00057 s⁻¹ with rat C7 protein [8] and 0.0015 s⁻¹ in assay [7]. The kon was found to be 6980 M⁻¹ s⁻¹ with rat C7 protein [8] and 26300 M⁻¹ s⁻¹ in assay [7].

The values are drawn from patent US20220380444A1 (UNIVERSITY COLLEGE CARDIFF CONSULTANTS, published 2022).
